Target: recombinant SARS-CoV-2 RBD, Prototype (SARS-CoV-2, prototype) (UniProt P0DTC2)
Assay: BLI

Substance NIH-CoVnb-112 (VHH) has a Kd of 1.59 nM and a koff of 0.000236 s⁻¹.
